Experimental data published in patent publication US20240218011A1 (FIREFLY BIO, published 2024).

Molecular target: human LPAM1 (human, UniProt P26010 20-798)
Experiment: cell-based or functional assay

Chain of human LPAM1 (P26010 20-798): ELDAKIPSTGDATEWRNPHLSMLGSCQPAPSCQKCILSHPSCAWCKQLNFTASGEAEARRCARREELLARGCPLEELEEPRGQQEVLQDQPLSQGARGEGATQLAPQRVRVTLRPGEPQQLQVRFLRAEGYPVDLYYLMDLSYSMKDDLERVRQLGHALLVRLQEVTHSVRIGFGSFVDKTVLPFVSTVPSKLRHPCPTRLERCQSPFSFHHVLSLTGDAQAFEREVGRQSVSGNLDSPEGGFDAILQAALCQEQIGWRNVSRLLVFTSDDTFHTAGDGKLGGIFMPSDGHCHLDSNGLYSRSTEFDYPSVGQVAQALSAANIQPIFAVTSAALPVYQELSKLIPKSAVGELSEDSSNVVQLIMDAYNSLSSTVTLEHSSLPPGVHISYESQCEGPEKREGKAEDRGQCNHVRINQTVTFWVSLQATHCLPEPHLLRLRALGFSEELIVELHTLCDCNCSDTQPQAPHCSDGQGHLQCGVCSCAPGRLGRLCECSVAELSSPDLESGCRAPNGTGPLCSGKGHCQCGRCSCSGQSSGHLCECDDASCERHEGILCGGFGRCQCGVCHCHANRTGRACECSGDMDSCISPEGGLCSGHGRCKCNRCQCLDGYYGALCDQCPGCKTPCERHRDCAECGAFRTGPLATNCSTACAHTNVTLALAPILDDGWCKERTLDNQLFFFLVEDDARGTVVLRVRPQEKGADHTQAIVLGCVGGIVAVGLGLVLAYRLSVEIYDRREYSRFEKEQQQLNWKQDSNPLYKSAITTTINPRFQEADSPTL

B1: Anti-LPAM-1-Linker 1-Bud (vedolizumab conjugated to GR agonist budesonide with Linker 1) (antibody, human IgG1, kappa, V domains shown)
VH: QVQLVQSGAEVKKPGASVKVSCKGSGYTFTSYWMHWVRQAPGQRLEWIGEIDPSESNTNYNQKFKGRVTLTVDISASTAYMELSSLRSEDTAVYYCARGGYDGWDYAIDYWGQGTLVTVSS
VL: DVVMTQSPLSLPVTPGEPASISCRSSQSLAKSYGNTYLSWYLQKPGQSPQLLIYGISNRFSGVPDRFSGSGSGTDFTLKISRVEAEDVGVYYCLQGTHQPYTFGQGTKVEIKR
modifications: budesonide attached through Linker 1; residues and chain not stated
- Fold induction Anti-LPAM1 conjugate at 0.0064 nM; luciferase reporter: 1 fold
- Fold induction Anti-LPAM1 conjugate at 0.032 nM; luciferase reporter: 1 fold
- Fold induction Anti-LPAM1 conjugate at 0.16 nM; luciferase reporter: 20 fold
- Fold induction Anti-LPAM1 conjugate at 0.8 nM; luciferase reporter: 121 fold
- Fold induction Anti-LPAM1 conjugate at 4 nM; luciferase reporter: 147 fold
- Fold induction Anti-LPAM1 conjugate at 20 nM; luciferase reporter: 177 fold
- Fold induction Anti-LPAM1 conjugate at 100 nM; luciferase reporter: 240 fold
- Fold induction Anti-LPAM1 conjugate at 500 nM; luciferase reporter: 361 fold
